Data from article PMC5672800 (Journal of medicinal chemistry, 2017).
Non-standard residues stand in square brackets, D forms with d. dPhe(4-I) = N[C@H](Cc1ccc(I)cc1)C(=O)O; d2Nal = N[C@H](Cc1ccc2ccccc2c1)C(=O)O; Bta = N[C@@H](Cc1csc2ccccc12)C(=O)O; Tic = O=C(O)[C@@H]1Cc2ccccc2CN1

B1: Ac-His-Arg-(pI)DPhe-Tic-NH2 (peptide)
chain: HRFX
HELM: PEPTIDE1{[ac].H.R.[O=C([C@@H](Cc1ccc(I)cc1)N[*:1])[*:2]].[Tic].[am]}$$$$V2.0
SMILES: CC(=O)N[C@@H](Cc1c[nH]cn1)C(=O)N[C@@H](CCCNC(=N)N)C(=O)N[C@H](Cc1ccc(I)cc1)C(=O)N1Cc2ccccc2C[C@H]1C(N)=O
B2: Ac-Arg-Arg-(pI)DPhe-Tic-NH2 (peptide)
chain: RRFX
HELM: PEPTIDE1{[ac].R.R.[O=C([C@@H](Cc1ccc(I)cc1)N[*:1])[*:2]].[Tic].[am]}$$$$V2.0
SMILES: CC(=O)N[C@@H](CCCNC(=N)N)C(=O)N[C@@H](CCCNC(=N)N)C(=O)N[C@H](Cc1ccc(I)cc1)C(=O)N1Cc2ccccc2C[C@H]1C(N)=O
B3: compound 25 (peptide)
peptide: RRFF
HELM: PEPTIDE1{[ac].R.R.[O=C([C@@H](Cc1ccc(I)cc1)N[*:1])[*:2]].F.[am]}$$$$V2.0
SMILES: CC(=O)N[C@@H](CCCNC(=N)N)C(=O)N[C@@H](CCCNC(=N)N)C(=O)N[C@H](Cc1ccc(I)cc1)C(=O)N[C@@H](Cc1ccccc1)C(N)=O

The binders below were run against mouse melanocortin-5 receptor (mouse, UniProt P41149 1-325) (assay: cell-based or functional assay).
Chain of mouse melanocortin-5 receptor (P41149 whole entry): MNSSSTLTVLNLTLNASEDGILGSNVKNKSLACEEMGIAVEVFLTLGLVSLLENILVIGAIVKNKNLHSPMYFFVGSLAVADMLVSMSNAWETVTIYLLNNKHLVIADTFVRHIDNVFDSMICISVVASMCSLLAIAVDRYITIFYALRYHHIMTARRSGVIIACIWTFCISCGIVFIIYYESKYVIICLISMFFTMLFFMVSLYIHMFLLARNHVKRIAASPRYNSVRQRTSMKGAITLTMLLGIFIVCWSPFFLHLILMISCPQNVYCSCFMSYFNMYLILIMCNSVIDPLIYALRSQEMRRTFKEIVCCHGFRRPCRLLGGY

| cAMP AlphaScreen, HEK293 cells stably expressing the receptor: agonist EC50 | Binder |
| --- | --- |
| 500 nM | Ac-RR[dPhe(4-I)][d2Nal]-NH2 [Ac-Arg-Arg-(pI)DPhe-DNal(2′)-NH2] |
| 1300 nM | Ac-FR[dPhe(4-I)][Bta]-NH2 [compound 15] |
| 250 nM | Ac-[d2Nal]R[dPhe(4-I)][Tic]-NH2 [compound 24] |
| 200 nM | Ac-FR[dPhe(4-I)][Tic]-NH2 [compound 22] |
| 17 nM | B1 |
| 3 nM | Ac-H[dF]RW-NH2 [Ac-His-DPhe-Arg-Trp-NH2] |
| 210 nM | Ac-RR[dPhe(4-I)][Bta]-NH2 [compound 10] |
| 270 nM | Ac-HR[dPhe(4-I)][Bta]-NH2 [compound 11] |
| 8.8 nM | B2 |
| 340 nM | B3 |

The binders below were run against mouse melanocortin-1 receptor (mouse, UniProt Q01727 1-315) (assay: cell-based or functional assay).
Chain of mouse melanocortin-1 receptor (Q01727 whole entry): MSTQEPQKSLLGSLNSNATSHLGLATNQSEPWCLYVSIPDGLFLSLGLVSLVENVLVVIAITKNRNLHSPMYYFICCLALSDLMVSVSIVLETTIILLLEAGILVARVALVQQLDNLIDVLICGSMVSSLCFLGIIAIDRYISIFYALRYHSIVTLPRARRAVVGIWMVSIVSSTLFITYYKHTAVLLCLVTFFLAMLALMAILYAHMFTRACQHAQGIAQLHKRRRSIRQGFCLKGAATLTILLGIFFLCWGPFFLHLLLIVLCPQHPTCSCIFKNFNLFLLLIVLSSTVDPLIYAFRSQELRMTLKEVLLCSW

| cAMP AlphaScreen, HEK293 cells stably expressing the receptor: agonist EC50 | Binder |
| --- | --- |
| 280 nM | Ac-RR[dPhe(4-I)][d2Nal]-NH2 [Ac-Arg-Arg-(pI)DPhe-DNal(2′)-NH2] |
| 330 nM | Ac-FR[dPhe(4-I)][Bta]-NH2 [compound 15] |
| 7 nM | Ac-[d2Nal]R[dPhe(4-I)][Tic]-NH2 [compound 24] |
| 8 nM | Ac-FR[dPhe(4-I)][Tic]-NH2 [compound 22] |
| 0.71 nM | B1 |
| 56 nM | Ac-RR[dPhe(4-I)][Bta]-NH2 [compound 10] |
| 70 nM | Ac-HR[dPhe(4-I)][Bta]-NH2 [compound 11] |
| 0.51 nM | B2 |
| 55 nM | B3 |

Each binder was assayed against T1, mouse melanocortin-4 receptor (mouse, UniProt P56450 1-332) (assay: radioligand binding).
T1 sequence (P56450 whole entry): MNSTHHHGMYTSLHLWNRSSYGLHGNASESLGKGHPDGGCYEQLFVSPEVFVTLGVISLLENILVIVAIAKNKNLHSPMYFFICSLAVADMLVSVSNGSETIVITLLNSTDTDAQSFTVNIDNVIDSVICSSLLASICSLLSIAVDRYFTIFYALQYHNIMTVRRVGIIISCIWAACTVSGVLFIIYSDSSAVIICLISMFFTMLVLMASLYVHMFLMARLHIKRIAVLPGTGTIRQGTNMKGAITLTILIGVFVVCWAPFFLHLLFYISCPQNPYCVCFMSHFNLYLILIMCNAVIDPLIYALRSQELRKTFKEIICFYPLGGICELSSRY

| IC50 | Binder |
| --- | --- |
| 220 nM | Ac-RR[dPhe(4-I)][d2Nal]-NH2 [Ac-Arg-Arg-(pI)DPhe-DNal(2′)-NH2] |
| 850 nM | Ac-FR[dPhe(4-I)][Bta]-NH2 [compound 15] |
| 43 nM | Ac-[d2Nal]R[dPhe(4-I)][Tic]-NH2 [compound 24] |
| 135 nM | Ac-FR[dPhe(4-I)][Tic]-NH2 [compound 22] |
| 83 nM | B1 |
| 93 nM | Ac-RR[dPhe(4-I)][Bta]-NH2 [compound 10] |
| 275 nM | Ac-HR[dPhe(4-I)][Bta]-NH2 [compound 11] |
| 13 nM | B2 |

These binders were tested against T2, mouse melanocortin-3 receptor (mouse, UniProt P33033 1-323) (assay: radioligand binding).
T2 sequence (P33033 whole entry): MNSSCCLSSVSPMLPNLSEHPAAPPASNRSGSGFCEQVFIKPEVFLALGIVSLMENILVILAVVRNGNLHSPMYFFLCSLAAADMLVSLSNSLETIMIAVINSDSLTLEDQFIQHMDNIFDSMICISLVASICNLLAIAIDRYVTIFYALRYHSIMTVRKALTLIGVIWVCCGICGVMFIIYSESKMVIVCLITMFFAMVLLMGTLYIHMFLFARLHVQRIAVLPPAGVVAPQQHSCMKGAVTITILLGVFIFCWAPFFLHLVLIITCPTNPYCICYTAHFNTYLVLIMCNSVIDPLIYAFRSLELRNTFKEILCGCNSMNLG

| IC50 | Binder |
| --- | --- |
| 440 nM | Ac-RR[dPhe(4-I)][d2Nal]-NH2 [Ac-Arg-Arg-(pI)DPhe-DNal(2′)-NH2] |
| 2500 nM | Ac-FR[dPhe(4-I)][Tic]-NH2 [compound 22] |

Each binder was assayed against T1, mouse melanocortin-4 receptor (assay: cell-based or functional assay).

| cAMP AlphaScreen, HEK293 cells stably expressing the receptor: agonist EC50 | cAMP AlphaScreen, Schild analysis against NDP-MSH (blocks m5+m3): antagonist pA2 | Binder |
| --- | --- | --- |
| > 100000 nM | 6.4 -Log(Ki) | Ac-RR[dPhe(4-I)][d2Nal]-NH2 [Ac-Arg-Arg-(pI)DPhe-DNal(2′)-NH2] |
| > 100000 nM | 5.7 -Log(Ki) | Ac-FR[dPhe(4-I)][Bta]-NH2 [compound 15] |
| – | 6.4 -Log(Ki) | Ac-[d2Nal]R[dPhe(4-I)][Tic]-NH2 [compound 24] |
| > 100000 nM | 6.3 -Log(Ki) | Ac-FR[dPhe(4-I)][Tic]-NH2 [compound 22] |
| > 100000 nM | 7 -Log(Ki) | B1 |
| – | 6.6 -Log(Ki) | Ac-RR[dPhe(4-I)][Bta]-NH2 [compound 10] |
| – | 6.4 -Log(Ki) | Ac-HR[dPhe(4-I)][Bta]-NH2 [compound 11] |
| > 100000 nM | 7.8 -Log(Ki) | B2 |

What follows are binders tested against T2, mouse melanocortin-3 receptor (assay: cell-based or functional assay).

| cAMP AlphaScreen, HEK293 cells stably expressing the receptor: agonist EC50 | Binder |
| --- | --- |
| 57 nM | Ac-RR[dPhe(4-I)][d2Nal]-NH2 [Ac-Arg-Arg-(pI)DPhe-DNal(2′)-NH2] |
| 930 nM | Ac-FR[dPhe(4-I)][Bta]-NH2 [compound 15] |
| 600 nM | Ac-[d2Nal]R[dPhe(4-I)][Tic]-NH2 [compound 24] |
| 610 nM | Ac-FR[dPhe(4-I)][Tic]-NH2 [compound 22] |
| 40 nM | B1 |
| 160 nM | Ac-RR[dPhe(4-I)][Bta]-NH2 [compound 10] |
| 460 nM | Ac-HR[dPhe(4-I)][Bta]-NH2 [compound 11] |
